Test results: IntAct's records for PubMed 19759014

B1: Zinc transporter 6 (Homo sapiens), Q6NXT4 (parent)
chain: MGTIHLFRKPQRSFFGKLLREFRLVAADRRSWKILLFGVINLICTGFLLMWCSSTNSIALTAYTYLTIFDLFSLMTCLISYWVTLRKPSPVYSFGFERLEVLAVFASTVLAQLGALFILKESAERFLEQPEIHTGRLLVGTFVALCFNLFTMLSIRNKPFAYVSEAASTSWLQEHVADLSRSLCGIIPGLSSIFLPRMNPFVLIDLAGAFALCITYMLIEINNYFAVDTASAIAIALMTFGTMYPMSVYSGKVLLQTTPPHVIGQLDKLIREVSTLDGVLEVRNEHFWTLGFGSLAGSVHVRIRRDANEQMVLAHVTNRLYTLVSTLTVQIFKDDWIRPALLSGPVAANVLNFSDHHVIPMPLLKGTDDLNPVTSTPAKPSSPPPEFSFNTPGKNVNPVILLNTQTRPYGFGLNHGHTPYSSMLNQGLGVPGIGATQGLRTGFTNIPSRYGTNNRIGQPRP

Variants of: B1
Settings: with znt5_human SLC30A5, Q8TAD4
Chain of znt5_human SLC30A5, Q8TAD4 (Q8TAD4 whole entry): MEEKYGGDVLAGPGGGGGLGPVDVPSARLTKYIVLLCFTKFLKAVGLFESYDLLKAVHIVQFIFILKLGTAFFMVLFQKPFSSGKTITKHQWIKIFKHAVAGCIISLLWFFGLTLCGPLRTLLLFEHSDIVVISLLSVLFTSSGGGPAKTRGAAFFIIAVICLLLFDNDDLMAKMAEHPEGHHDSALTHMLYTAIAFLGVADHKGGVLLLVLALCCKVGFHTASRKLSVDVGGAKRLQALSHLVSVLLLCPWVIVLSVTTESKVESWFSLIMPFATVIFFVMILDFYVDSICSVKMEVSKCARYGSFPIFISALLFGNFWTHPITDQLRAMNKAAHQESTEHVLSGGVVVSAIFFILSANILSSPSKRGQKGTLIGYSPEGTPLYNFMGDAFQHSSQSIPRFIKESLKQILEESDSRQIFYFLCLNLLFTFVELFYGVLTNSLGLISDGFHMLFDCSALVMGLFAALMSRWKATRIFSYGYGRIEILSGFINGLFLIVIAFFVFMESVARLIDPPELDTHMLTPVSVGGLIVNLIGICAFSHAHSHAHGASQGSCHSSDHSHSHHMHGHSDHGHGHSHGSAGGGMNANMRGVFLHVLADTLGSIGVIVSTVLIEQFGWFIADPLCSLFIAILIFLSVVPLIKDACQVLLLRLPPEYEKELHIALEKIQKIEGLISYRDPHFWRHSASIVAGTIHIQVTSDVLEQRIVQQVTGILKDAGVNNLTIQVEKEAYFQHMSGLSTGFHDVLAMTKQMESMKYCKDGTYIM

Row | effect of a mutation on the interaction | Variant
1 | with no effect | MGTIHLFRKPQRSFFGKLLREFRLVAADRRSWKILLFGVINLICTGFLLMWCSSTNSIALTAYTYHTIFDLFSLMTCLISYWVTLRKPSPVYSFGFERLEVLAVFASTVLAQLGALFILKESAERFLEQPEIHTGRLLVGTFVALCFNLFTMLSIRNKPFAYVSEAASTSWLQEHVADLSRSLCGIIPGLSSIFLPRMNPHVLIDLAGAFALCITYMLIEINNYFAVDTASAIAIALMTFGTMYPMSVYSGKVLLQTTPPHVIGQLDKLIREVSTLDGVLEVRNEHFWTLGFGSLAGSVHVRIRRDANEQMVLAHVTNRLYTLVSTLTVQIFKDDWIRPALLSGPVAANVLNFSDHHVIPMPLLKGTDDLNPVTSTPAKPSSPPPEFSFNTPGKNVNPVILLNTQTRPYGFGLNHGHTPYSSMLNQGLGVPGIGATQGLRTGFTNIPSRYGTNNRIGQPRP [L66H;F201H]
2 | with no effect | MGTIHLFRKPQRSFFGKLLREFRLVAADRRSWKILLFGVINLICTGFLLMWCSSTNSIALTAYTYLTIFALFSLMTCLISYWVTLRKPSPVYSFGFERLEVLAVFASTVLAQLGALFILKESAERFLEQPEIHTGRLLVGTFVALCFNLFTMLSIRNKPFAYVSEAASTSWLQEHVADLSRSLCGIIPGLSSIFLPRMNPFVLIALAGAFALCITYMLIEINNYFAVDTASAIAIALMTFGTMYPMSVYSGKVLLQTTPPHVIGQLDKLIREVSTLDGVLEVRNEHFWTLGFGSLAGSVHVRIRRDANEQMVLAHVTNRLYTLVSTLTVQIFKDDWIRPALLSGPVAANVLNFSDHHVIPMPLLKGTDDLNPVTSTPAKPSSPPPEFSFNTPGKNVNPVILLNTQTRPYGFGLNHGHTPYSSMLNQGLGVPGIGATQGLRTGFTNIPSRYGTNNRIGQPRP [D70A;D205A]
